Results as given in the nanobody polyreactivity screen of Harvey et al. (2022).

Assay: yeast display, Sf9 membrane polyspecificity reagent, FACS + sequencing; frameworks hold sequencing errors
In short: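 After 36–48 hours of galactose induction, yeast (Saccharomyces cerevisiae BJ5465) displaying a synthetic nanobody library were stained at 4 °C for 1 hour with 10% biotinylated, detergent-solubilized Sf9 membrane reagent. Streptavidin microbeads enriched the stained cells before FACS sorting into low and high (top ~1%) gates on anti-HA and streptavidin fluorescence. Each clone's polyreactivity label reflects its gate of origin.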

Sequence	polyreactivity (PSR sort gate)
QVQLVESGGGLVQAGGSLRLSCAASGFTFGTYAMGWYRQAPGKERELVARISRRSGSTYYADSVKGRFTISRDKAKNTVYLQMNSLKPEDTAVYYCAADSRAKRYYWGQGTQVTVSS	high polyreactivity
QVQLVESGGGLVQAGGSLRLSCAASGRIFKTNAMGWYRQAPGKERELVAGITSGGGTNYADSVKGRFTISRDNAKNTVYLQMNSLKPEDTAVYYCAKDRNFRHIKYSWGGYPYTMDYWGQGTQVTVSS	low polyreactivity
QVQLVESGGGLVQAGGSLRLSCAASGIILHYYTMGWYRQAPGKERELVAAITFSGGGTYYADSVKGRFTISRDNAKNTVYLQMNSLKPEDTAVYYCAAPWRYYGHDYWGQGTQVTVSS	low polyreactivity
QVQLVESGGRLVQAGGSLRLSCAASGSIFPGNAMGWYRQAPGKDREYVGAISWSGGSTNYADSVKGRFTISRDNAKYTVYLQMNSLKPEDTAVYYCAKRFVRLDPTTQLYGKAYEYWGQGTQVTVSS	high polyreactivity
QVQLVETGGGLVQAGGSLRLSCAASGLTFYDYAMGWYRQAPGKERELVADIDFNGGSTSYADSVKGRFTISRDNAKNTVYLQMNSLKPEDTAVYDCNTRDRGDVVTGLDYWGQGTQVTVSS	low polyreactivity
QVQLVESGGGLVQAGGSLRLSCAASGRTFTRYVMGWYRQAPGKESELVAVISSGGRTYYADSVKGRFTISRDNAKNTVYLQMNSLKPEDTAVYYCAAVTHPAWAVEYDYWGQGTQVTVSS	high polyreactivity
QVQLVESGGGLVQARGSLRLSCAASGRIFDRYDMGCYRQAPGKEREFVASITWSDGSTYYADSVKGRFTISRDYAKNTVYLQMNSLKPEDTAVYYCNADYVYYYIPVVYEYDYWGQGTQVTVSS	high polyreactivity
QVQLVESGGGLVQAGGSLRLSCAASGSTFTPYAMGWHRQAPGKERELVAAITIRGGSTYYADSVKGRFTISRDNAKNTVYLQMYSLKPEDTAVYYCAREYIFSVYDYSTSYYYWGQGTQVTVSS	low polyreactivity
QVQLQESGGGLVQAGGSLRLSCAASGSIFHLHIMCWYRQAPGKERESVAAISNGTSTYYADSVKGRFTICRDNAKNTVYLQMNSPKPDDTAVYYCAALFLVSKHHHYWGEGTQVTVSS	low polyreactivity
QVQLVESGGGLVQAGGSLRFSCAASGSIFDRYAMGWYRQAPGKERELVAAITYSGGSTYYADSVKGRFTISRDNAKNTVYLQMNSLKPEDTAVYYCATETYPQGRYYQSYDYWGQGTQVTVSS	low polyreactivity
QVQLVESGGGLVQAGGSLRLSCAASGSIFRCNAMGWYRQAPGKERELVAVINSSGGSTYYADSVKGRFTISRDNAKNTVYLQMNSLKPEDTAVYYCAADLFLDGSSQYDPNWWPDGWNTYRLLGGYWGQGTQVTVSS	low polyreactivity
QVQLVESAGGLVQAGGSLRLSCDASGRIFTIYAMGWYSQAPGKERELVAAIRSSGDRTYYADSVKGRFTISRDNAKNTVYLQMNSQKPEDTAVYYCAARTRGGYYWGQGTQVTVSS	high polyreactivity
QVQVVESGGGLVQAGASLRLSCAASGRTCLHKAMGWYRQAPGKERELVAAIDSRGTTHYADSVKGRFTISRDNAKNTVYLQMNSLKPEDTAVYYCAARPTRGHWWYAYWGQGTQVTVSS	low polyreactivity
QVQLVESGGGLVQAGRSLRLSCAASGYIFDTNAMGWYRQAPGKERELVAAITKSGGSTYYADSVKGRFTISRDNAKNTVYLHMNSLKPEDTAVYYCAARGTSKRWSLYDYWGQGTQVTVSS	low polyreactivity
QVQLVESGGGLVQAGGSLRLSCAASGFTFGSNAMGWYRQAPGKEREFVAAISGSGDRTYYADSVKGRFTISRDNAKNTVYLQMNSLKPEDTAVYYCATSVRQNYFYSYDDWGQGTQVTVSS	high polyreactivity
QVQLVESGGGLVQAGGSLRLSCAASGLIFGFYTMGWYRQAPGKERELVAVISSSGGSTYYADSVKGRFTISRDNAKNTVYLQMNSLKPEDTAVYYCAARAYPVRYRRRDYWGQGTQVTVSS	high polyreactivity

Sequence	polyreactivity (PSR sort gate)
QVQLVESGGGLVQAGGSLRLSCAASGFTFDYYAMGWYRQAPGKERELVAAISKRGGSTYYADSVKGRFTISRDNAKNTVYLQMNSLKPEDTAVYYCAAASYSSPRTSSGNYWGQGTQVYVSS	high polyreactivity
QVQLVESGGGLVQAGGSLRLSCAASGSTFESNAMGWNRQAPGKERDLVASISGSGGSTFYADSVKGSFTISRDNAKNTVYLQMNILKPEDTGVYYCAAYKEPYYEEYGYWGQGTQVTVSS	low polyreactivity
QVQLVESGGGLVQAGGSLRLSCAASGSIFTGNAMGWYRQAPGKERELVASITTSTDSTYYADSVKGRFTISRDNAKNTVYLQMNSLNPEDTAVYYCAAEYAVAWKYGLYFYFHFDYWGQGTQVTVSS	low polyreactivity
QVQLVESGGGLVQAGGSLRLSCAGYGLTFEYYTMGWYRQAPGKGRELVAAITSSGGSTYYADSVKGRFTISRDNSKNTFYLQMISLKPEDTAVYYCNAYLTYEFPSYDYWGQGTQVTVSS	low polyreactivity
QDQLVESGGGLVQAGGSLGLSCAASGSIFGFYDMGWSRQAPGKERELVAAITSGDSTHYADSVKGRFTISRDNAQNTVYVQMNSLKPVDTAVYYCAASAPYRYYRSAYYSWGQGTQVTVSS	low polyreactivity
HVQLVESGGGLVQAGGILRLSCAASGRIFPGYTMGWYRQGPGKERELVARISFSDGSTYYADSVNGRFTISRDNAKNTVYFQMNSRKPEDTAVYYCNAATYRNRHSNNGYWGQGTQVTVSS	low polyreactivity
QVQLVESGGGLVQAGGSLRLSCAASGSIFSINAMGWYRQAPGKERELVAAISWSGGSTYYADSVKGRFTISRDNAKNTVYLQMNSLKPEDTAVYYCAASYWDTEPGYREYDYWGQGTQVTVSS	low polyreactivity
QVQLVESVGGLVQAGGSLRLSCAASGFTFGYYAMGWYRQAPGKERELVASISRSGGSTNYADSVKGRFTISRDNAKNTVYLQMNSLKPEDTAVYYCAKPLWDPKYDYWGQGTQVTVSS	high polyreactivity
QDQLVESGGGLVQAGGGLRLSCAASVRTFSKYTMGWYRQAPGKERELVAAISYSGGSTYYADSVKGRFTISRDNAKNTVYLQMNSLKPEDTAVYYCAARASTYKYYYWGQGTQVTVSS	high polyreactivity
QVQLVESGGGLVQAGGSLRLSCAASGSTFSIYTMGWYRQAPGKERELVAAITRGGSTYYADSVKGRFTISRDNAKNTVYLQMNSLKPEDTAVYYCAADYVSYYRGGRYIELDYWGQGTQVTVSS	low polyreactivity
QVQLVESGGGLVQAGGSLRLSCAASGFTFWEYAMGWYRQAPGKERELVAAISRGTSTYYADSVKGRFTISRDNAKNTVYLQMNSLKPEDTAVYYCAAAPSYYPARHGYWGQGTQVTVSS	low polyreactivity
QVHLVESGGGLVQAGGSLRLSCAASGSNFYWNAMGWYRQAPGKESELFAAISSGGRTYYADSLKGRFTISRDNAKNTVYLQLNSLKREDTAFYYCNAAGWIFPSFSPMDYWGQGTQVTVSS	low polyreactivity
QVQLVESGGGLVQAGGSLRLSSAASGGIFWYYTMGWYRQAPGKERELVAAISWSGGRTYYADSVKGRFTISRDNAKNTVYLQMNSLKPEDTAVYYCAATFRGVLGWYHYEYWGQGTQVTVSS	high polyreactivity
QVQLVESGGGLVQAGGSLRLSCAASGSIIRTYVMGWYRQAPGKERELVAAITYSGGRTYYADSVKGRFTISRDNAKNTVYLQMNSLKPEDTAVYYCAARSPRPSAIYDYWGQGTQVTVSS	high polyreactivity
QVQLVESGGGLVQAGGSLRLSCAASGSIFFFNAMGWSRQAPGKERELVATISDTTDTDYADSVKGRFTISRENGKNTVYLQMNSLKPEDTAVYYCAKVKAWTEYYYWGQGTQVTVSS	low polyreactivity
